According to patent US20110166062A1 (INDIANA UNIVERSITY RESEARCH AND TECHNOLOGY, published 2011):
*1 amine or outer side, *2 acyl side, *3 side chain or, on linkers, in order; H or OH if unused. Where no end group is shown, it is not given here. Side-chain parts run from the residue outwards. [ ]: non-standard residue; d: D form. The star is where a group is joined. γGlu = O=C(O)[C@H](CCC(=O)[*:2])N[*:1]; Palmitoyl = CCCCCCCCCCCCCCCC(=O)*; Aib = CC(C)(N)C(=O)O

T1: GIP receptor (UniProt P48546 22-466)
T1 sequence (looked up): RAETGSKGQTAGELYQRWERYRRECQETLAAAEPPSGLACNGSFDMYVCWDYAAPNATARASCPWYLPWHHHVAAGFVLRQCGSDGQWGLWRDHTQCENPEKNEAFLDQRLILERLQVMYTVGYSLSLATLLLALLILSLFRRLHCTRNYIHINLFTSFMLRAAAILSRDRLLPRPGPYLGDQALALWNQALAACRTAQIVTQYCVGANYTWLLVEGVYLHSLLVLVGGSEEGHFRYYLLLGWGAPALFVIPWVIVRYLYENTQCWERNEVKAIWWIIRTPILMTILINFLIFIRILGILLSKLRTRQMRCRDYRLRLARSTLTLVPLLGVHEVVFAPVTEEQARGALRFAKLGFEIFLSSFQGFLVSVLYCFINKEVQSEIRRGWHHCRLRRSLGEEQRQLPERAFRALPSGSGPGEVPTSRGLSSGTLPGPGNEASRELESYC

B1: mt-368 (peptide)
peptide: Y[Aib]QGTFTSDYSIYLDKQAA[Aib]EFVNWLLAGGPSSGAPPPSK([γGlu-γGlu-Palmitoyl])-NH2
modifications: N-terminus assumed
SMILES: CCCCCCCCCCCCCCCC(=O)N[C@@H](CCC(=O)N[C@@H](CCC(=O)NCCCC[C@H](NC(=O)[C@H](CO)NC(=O)[C@@H]1CCCN1C(=O)[C@@H]1CCCN1C(=O)[C@@H]1CCCN1C(=O)[C@H](C)NC(=O)CNC(=O)[C@H](CO)NC(=O)[C@H](CO)NC(=O)[C@@H]1CCCN1C(=O)CNC(=O)CNC(=O)[C@H](C)NC(=O)[C@H](CC(C)C)NC(=O)[C@H](CC(C)C)NC(=O)[C@H](Cc1c[nH]c2ccccc12)NC(=O)[C@H](CC(N)=O)NC(=O)[C@@H](NC(=O)[C@H](Cc1ccccc1)NC(=O)[C@H](CCC(=O)O)NC(=O)C(C)(C)NC(=O)[C@H](C)NC(=O)[C@H](C)NC(=O)[C@H](CCC(N)=O)NC(=O)[C@H](CCCCN)NC(=O)[C@H](CC(=O)O)NC(=O)[C@H](CC(C)C)NC(=O)[C@H](Cc1ccc(O)cc1)NC(=O)[C@@H](NC(=O)[C@H](CO)NC(=O)[C@H](Cc1ccc(O)cc1)NC(=O)[C@H](CC(=O)O)NC(=O)[C@H](CO)NC(=O)[C@@H](NC(=O)[C@H](Cc1ccccc1)NC(=O)[C@@H](NC(=O)CNC(=O)[C@H](CCC(N)=O)NC(=O)C(C)(C)NC(=O)[C@@H](N)Cc1ccc(O)cc1)[C@@H](C)O)[C@@H](C)O)[C@@H](C)CC)C(C)C)C(N)=O)C(=O)O)C(=O)O
B2: mt-369 (peptide)
peptide: Y[Aib]EGTFTSDK([γGlu-γGlu-Palmitoyl])SIYLDKQAA[Aib]EFVNWLLAGGPSSGAPPPSK-NH2
modifications: N-terminus assumed
SMILES: CCCCCCCCCCCCCCCC(=O)N[C@@H](CCC(=O)N[C@@H](CCC(=O)NCCCC[C@H](NC(=O)[C@H](CC(=O)O)NC(=O)[C@H](CO)NC(=O)[C@@H](NC(=O)[C@H](Cc1ccccc1)NC(=O)[C@@H](NC(=O)CNC(=O)[C@H](CCC(=O)O)NC(=O)C(C)(C)NC(=O)[C@@H](N)Cc1ccc(O)cc1)[C@@H](C)O)[C@@H](C)O)C(=O)N[C@@H](CO)C(=O)N[C@H](C(=O)N[C@@H](Cc1ccc(O)cc1)C(=O)N[C@@H](CC(C)C)C(=O)N[C@@H](CC(=O)O)C(=O)N[C@@H](CCCCN)C(=O)N[C@@H](CCC(N)=O)C(=O)N[C@@H](C)C(=O)N[C@@H](C)C(=O)NC(C)(C)C(=O)N[C@@H](CCC(=O)O)C(=O)N[C@@H](Cc1ccccc1)C(=O)N[C@H](C(=O)N[C@@H](CC(N)=O)C(=O)N[C@@H](Cc1c[nH]c2ccccc12)C(=O)N[C@@H](CC(C)C)C(=O)N[C@@H](CC(C)C)C(=O)N[C@@H](C)C(=O)NCC(=O)NCC(=O)N1CCC[C@H]1C(=O)N[C@@H](CO)C(=O)N[C@@H](CO)C(=O)NCC(=O)N[C@@H](C)C(=O)N1CCC[C@H]1C(=O)N1CCC[C@H]1C(=O)N1CCC[C@H]1C(=O)N[C@@H](CO)C(=O)N[C@@H](CCCCN)C(N)=O)C(C)C)[C@@H](C)CC)C(=O)O)C(=O)O

What was measured:
Test in all cases: cell-based or functional assay
GLP-1 receptor [1] = target: T2, GLP-1 receptor (UniProt P43220 24-463, limits assumed)
glucagon receptor [2] = target: T3, glucagon receptor (UniProt P47871 26-477, limits assumed)
T3 sequence (P47871 26-477 limits assumed): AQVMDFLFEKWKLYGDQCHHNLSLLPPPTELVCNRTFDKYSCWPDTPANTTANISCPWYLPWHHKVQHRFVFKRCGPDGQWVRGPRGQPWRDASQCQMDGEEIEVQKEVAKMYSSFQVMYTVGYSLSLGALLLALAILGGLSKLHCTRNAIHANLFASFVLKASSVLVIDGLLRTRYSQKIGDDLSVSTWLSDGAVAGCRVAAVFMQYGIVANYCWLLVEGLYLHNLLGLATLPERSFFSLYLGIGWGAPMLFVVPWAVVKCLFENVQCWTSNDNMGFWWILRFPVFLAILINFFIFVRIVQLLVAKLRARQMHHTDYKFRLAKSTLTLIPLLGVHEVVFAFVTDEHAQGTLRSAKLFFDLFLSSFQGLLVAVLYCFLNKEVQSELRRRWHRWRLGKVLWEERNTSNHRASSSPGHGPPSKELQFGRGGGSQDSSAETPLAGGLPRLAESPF

GIP receptor [3] = target: T1, GIP receptor
GLP-1 receptor [4] = target: T2, GLP-1 receptor; remark: listed apart in the source
glucagon receptor [5] = target: T3, glucagon receptor; remark: listed apart in the source
GIP receptor [6] = target: T1, GIP receptor; remark: listed apart in the source

Binder	% Relative activity at the Receptor for GLP-1 (GLP-1 receptor [1]) [%]	% Relative activity at the Receptor for Glucagon (glucagon receptor [2]) [%]	% Relative activity at the Receptor for GIP (GIP receptor [3]) [%]	EC50, nM; GLP-1 Receptor (GLP-1 receptor [4]) [nM]	relative activity; GLP-1 Receptor (GLP-1 receptor [4]) [%]	EC50, nM; Glucagon Receptor (glucagon receptor [5]) [nM]	relative activity; Glucagon Receptor (glucagon receptor [5]) [%]	EC50, nM; GIP Receptor (GIP receptor [6]) [nM]	relative activity; GIP Receptor (GIP receptor [6]) [%]
B1	419	492	296	0.0038	419	0.0069	492	0.00097	296
B2	385	1.54	204	0.0041	385	2.19	1.54	0.0014	204
